Assay results taken from FireProtDB (doi:10.1074/jbc.270.30.17712).
Where “and” joins values, the source holds several entries; their conditions need not be identical. Identical values can stand only once.

B1: Tryptophan synthase alpha chain, P0A877 (parent)
chain: MERYESLFAQLKERKEGAFVPFVTLGDPGIEQSLKIIDTLIEAGADALELGIPFSDPLADGPTIQNATLRAFAAGVTPAQCFEMLALIRQKHPTIPIGLLMYANLVFNKGIDEFYAQCEKVGVDSVLVADVPVEESAPFRQAALRHNVAPIFICPPNADDDLLRQIASYGRGYTYLLSRAGVTGAENRAALPLNHLVAKLKEYNAAPPLQGFGISAPDQVKAAIDAGAAGAISGSAIVKIIEQHINEPEKMLAALKVFVQPMKAATRS

Variants of: B1
Conditions: Escherichia coli (strain K12); pH 7.8; 23 °C; Urea; Absorbance; Potassium phosphate 10 mM; transition: 3; reversible: yes; structure 1WQ5; whole UniProt chain shown

Row | Variant | ddG of mutation (higher = less stable) | denaturant m value | denaturant midpoint (higher = more stable) | unfolding free energy
1 | F258W | 5.86 kJ/mol and 4.18 kJ/mol | 1.9 kcal/mol/M and 1.2 kcal/mol/M | 2.68 M and 3.58 M | 20.9 kJ/mol and 17.6 kJ/mol
2 | F139W F258W | 3.35 kJ/mol | 2.1 kcal/mol/M and 1.3 kcal/mol/M | 2.67 M and 3.51 M | 23.4 kJ/mol and 18.4 kJ/mol
3 | F139W | 2.93 kJ/mol and 2.51 kJ/mol | 2.3 kcal/mol/M and 1.2 kcal/mol/M | 2.46 M and 3.8 M | 23.8 kJ/mol and 19.2 kJ/mol
